According to PMC4351601, “Structural basis for self-assembly of a cytolytic pore lined by protein and lipid” (Nature Communications, 2015):

Columns and labels:
[1] = biological target: the molecule itself; assay: cell-based or functional assay
[2] = biological target: the molecule itself; assay: crystal structure; dimeric form (assembly intermediate); crystals with 100 mM POC, 3 mM DDM, 200 mM Li2SO4, PEG 8,000, sodium acetate pH 4.1-4.3; two crystal forms, 1.57 and 1.60 Å
[3] = biological target: the molecule itself; assay: crystal structure; transmembrane pore; water-soluble FraC incubated with lipid vesicles, solubilised and purified in detergent (DDM 0.015%), crystallised by the lipid sponge phase method, 20 °C; 3.1 Å; 24 bound lipids modelled as SM

Protein	haemolytic activity (horse erythrocytes), relative to wild-type FraC [1]	stoichiometry N [2]	stoichiometry N [3]
FraC mutein V60E/W149A (natural protein) SADVAGAVIDGAGLGFDVLKTVLEALGNVKRKIAVGIDNESGKTWTAMNTYFRSGTSDIELPHKVAHGKALLYNGQKNRGPVATGVVGVIAYSMSDGNTLAVLFSVPYDYNWYSNWWNVRVYKGQKRADQRMYEELYYHRSPFRGDNGAHSRGLGYGLKSRGFMNSSGHAILEIHVTKA	~16 % of wild type	–	–
FraC mutein V8C/K69C, oxidised (engineered disulfide bond between the N-terminal and beta-core regions) (natural protein) SADVAGACIDGAGLGFDVLKTVLEALGNVKRKIAVGIDNESGKTWTAMNTYFRSGTSDIVLPHKVAHGCALLYNGQKNRGPVATGVVGVIAYSMSDGNTLAVLFSVPYDYNWYSNWWNVRVYKGQKRADQRMYEELYYHRSPFRGDNGWHSRGLGYGLKSRGFMNSSGHAILEIHVTKA	1 % of wild type	–	–
fragaceatoxin C (FraC), wild type (natural protein, no tag is mentioned; also called water-soluble FraC; monomeric FraC; source: E. coli BL21 (DE3), purified (Resource S cation exchange, Superdex 75 SEC)) SADVAGAVIDGAGLGFDVLKTVLEALGNVKRKIAVGIDNESGKTWTAMNTYFRSGTSDIVLPHKVAHGKALLYNGQKNRGPVATGVVGVIAYSMSDGNTLAVLFSVPYDYNWYSNWWNVRVYKGQKRADQRMYEELYYHRSPFRGDNGWHSRGLGYGLKSRGFMNSSGHAILEIHVTKA	–	2	8
